In patent publication US20040241820A1:

Biological target: Savinase® (subtilisin 309) (UniProt P29600)
Assay: cell-based or functional assay

Sequence of UniProt P29600 (P29600 whole entry): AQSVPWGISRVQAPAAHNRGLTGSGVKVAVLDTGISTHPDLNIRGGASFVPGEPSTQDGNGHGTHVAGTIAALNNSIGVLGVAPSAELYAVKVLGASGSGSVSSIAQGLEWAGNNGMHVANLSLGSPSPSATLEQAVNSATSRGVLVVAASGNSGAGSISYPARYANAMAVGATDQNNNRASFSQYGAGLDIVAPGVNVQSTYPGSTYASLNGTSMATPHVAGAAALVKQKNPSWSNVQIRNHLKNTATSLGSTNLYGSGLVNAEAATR

“trypsin inhibitor type IV-0 (Ovo-inhibitor), Sigma T-1886 (from UniProt P10184 69-517)” was tested. Which RA (%) (Residual Activity in the Ovo-inhibition Assay; hydrolysis of Suc-Ala-Ala-Pro-Phe-pNA with versus without inhibitor) did it give?
The RA (%) (Residual Activity in the Ovo-inhibition Assay; hydrolysis of Suc-Ala-Ala-Pro-Phe-pNA with versus without inhibitor) was under 5%.
